For this assay, the target named is PRRSV nonstructural protein 2 transframe product (nsp2TF) (porcine reproductive and respiratory syndrome virus 2 (PRRSV-2), isolate SD95-21). In words: co-IP; lysates of PRRSV-infected MARC-145 cells collected at 8, 10 and 12 hpi; IP with rabbit anti-nsp2TF pAb or anti-nsp2 pAb (C-terminal peptides); blots probed with anti-GP5 and anti-M mAbs; densitometry; mock-infected lysate as control.

Regarding “PRRSV GP5 glycoprotein (natural protein)”, the fold more GP5 co-precipitated than in the nsp2 IP, 8 hpi amounted to 3.39 fold; the fold more GP5 co-precipitated than in the nsp2 IP, 10 hpi stood at 3.26 fold; the fold more GP5 co-precipitated than in the nsp2 IP, 12 hpi worked out at 3.36 fold.

“PRRSV membrane (M) protein (natural protein)” returned a fold more M protein co-precipitated than in the nsp2 IP, 8 hpi of 3.38 fold; a fold more M protein co-precipitated than in the nsp2 IP, 10 hpi of 3.44 fold; a fold more M protein co-precipitated than in the nsp2 IP, 12 hpi of 2.77 fold.

The values are drawn from article PMC7971519.
